Reference: the supplement of paper PMC7877785
± gives the uncertainty stated by the source.

Test: self-splicing fitness, log relative to wild type (ln ratio); higher = more splicing; Tetrahymena group I intron in knt gene, E. coli kanamycin selection, DiMSum; sequences stand for … in CUCUCU…GGAGGGAAAAGUUAUCAGGCAUGCACCUGGUAGCUAGUCUUUAAACCAAUAGAUUGCAUCGGUUUAAAAGGCAAGACCGUCAAAUUGCGGGAAAGGGGUCAACAGCCGUUCAGUACCAAGUCUCAGGGGAAACUUUGAGAUGGCCUUGCAAAGGGUAUGGUAAUAAGCUGACGGACAUGGUCCUAACCACGCAGCCAAGUCCUAAGUCAACAGAUCUUCUGUUGAUAUGGAUGCAGUUCACAGACUAAAUGUCGGUCGGGGAAGAUGUAUUCUUCUCAUAAGAUAUAGUCGGACCUCUCCUUAAUGGGAGCUAGCGGAUGAAGUGAUGCAACACUGGAGCCGCUGGGAACUAAUUUGUAUGCGAAAGUAUAUUGAUUAGUUUUGGAGUACUCGUGGUCG
Outline: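 Colonies from six replicate transformations of E. coli BL21(DE3) were pooled and amplicon-sequenced on an Illumina HiSeq 2500. The library placed an intron with all eight P1ex-region nucleotides randomised inside the knt kanamycin-resistance gene on pET-22b(+), and cells grew overnight at 37°C or 30°C on LB agar with or without 25 μg/mL kanamycin (plus 100 μg/mL carbenicillin, 50 μM IPTG, 0.2% rhamnose). Fitness is the DiMSum error-weighted combination of wild-type-normalised replicate fold changes, kanamycin versus none.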

| Sequence | self-splicing fitness (ln) (30 °C) | self-splicing fitness (ln) (37 °C) |
| --- | --- | --- |
| GCCCAGCAAUAUUACGUGAG | -0.944 ± 0.043 | -0.161 ± 0.056 |
| AUGUAGCAAUAUUACGGCAC | -1.59 ± 0.18 | 0.329 ± 0.18 |
| UUCUAGCAAUAUUACGAGCG | -0.769 ± 0.066 | -0.94 ± 0.072 |
| CGCAAGCAAUAUUACGGCCU | -2.59 ± 0.14 | -0.135 ± 0.13 |
| CCACAGCAAUAUUACGUCAG | -0.817 ± 0.057 | -0.131 ± 0.071 |
| UACAAGCAAUAUUACGCGUC | -2.06 ± 0.1 | -1.23 ± 0.14 |
| ACCUAGCAAUAUUACGCCGG | -0.962 ± 0.13 | -0.598 ± 0.17 |
| GCGCAGCAAUAUUACGAAGA | -1.64 ± 0.13 | -0.808 ± 0.12 |
| UCAUAGCAAUAUUACGGUUA | -1.37 ± 0.14 | -0.36 ± 0.11 |
| GACGAGCAAUAUUACGGCUU | -1.43 ± 0.11 | -0.332 ± 0.14 |
| GCAAAGCAAUAUUACGAUCU | -0.767 ± 0.087 | -0.252 ± 0.099 |
| CACGAGCAAUAUUACGUAAC | -2.41 ± 0.27 | – |
| GAGGAGCAAUAUUACGGUCG | -1.43 ± 0.14 | -2.19 ± 0.29 |
| UGCGAGCAAUAUUACGAGUA | -0.846 ± 0.14 | -1.84 ± 0.2 |
| CCAGAGCAAUAUUACGCGCU | -2.97 ± 0.24 | -1.89 ± 0.34 |
| AUAAAGCAAUAUUACGGCUA | 0.756 ± 0.14 | -0.15 ± 0.14 |
| AUACAGCAAUAUUACGUCAA | -2.32 ± 0.15 | -1.05 ± 0.1 |
| AUUCAGCAAUAUUACGUUGU | -3.14 ± 0.15 | -2.3 ± 0.21 |
| CGGGAGCAAUAUUACGUAGC | -2.26 ± 0.32 | -1.05 ± 0.22 |
| AGCCAGCAAUAUUACGCUCG | -1.78 ± 0.18 | -1.58 ± 0.18 |
| UGCAAGCAAUAUUACGCUAG | -2.55 ± 0.27 | -2.42 ± 0.33 |
| GGAAAGCAAUAUUACGAUGU | -1.69 ± 0.094 | -0.262 ± 0.13 |
| AUCUAGCAAUAUUACGACUG | -2.01 ± 0.14 | -1.07 ± 0.15 |
| AUUCAGCAAUAUUACGUUUA | -1.18 ± 0.12 | -0.911 ± 0.11 |
| UAACAGCAAUAUUACGCUAU | -2.86 ± 0.12 | -1.82 ± 0.11 |

| Sequence | self-splicing fitness (ln) (30 °C) | self-splicing fitness (ln) (37 °C) |
| --- | --- | --- |
| GAUGAGCAAUAUUACGGUGG | -4.41 ± 0.23 | -1.73 ± 0.14 |
| UAACAGCAAUAUUACGCGAA | -1.9 ± 0.11 | -0.949 ± 0.11 |
| UGCCAGCAAUAUUACGAAUA | -2.53 ± 0.16 | -0.828 ± 0.12 |
| GACCAGCAAUAUUACGUCUG | -2.93 ± 0.23 | -1.74 ± 0.21 |
| ACGCAGCAAUAUUACGGGGU | -4.68 ± 0.22 | -2.34 ± 0.12 |
| UCCUAGCAAUAUUACGGAAG | -3.41 ± 0.28 | -1.23 ± 0.43 |
| AGUAAGCAAUAUUACGGCGU | -0.683 ± 0.073 | 0.246 ± 0.095 |
| UUUCAGCAAUAUUACGGGCC | -4.27 ± 0.46 | -2.37 ± 0.37 |
| AACGAGCAAUAUUACGUGAA | -3.48 ± 0.19 | -3.65 ± 0.24 |
| UUCCAGCAAUAUUACGAAGU | – | -1.47 ± 0.32 |
| UCCGAGCAAUAUUACGUUCA | -2.55 ± 0.2 | -3.16 ± 0.4 |
| UAUAAGCAAUAUUACGAGGU | -3.53 ± 0.23 | -2.54 ± 0.23 |
| UUUCAGCAAUAUUACGAAUC | -1.94 ± 0.18 | -1.31 ± 0.24 |
| UCAAAGCAAUAUUACGUUUC | -4.09 ± 0.26 | -3.15 ± 0.2 |
| CCCCAGCAAUAUUACGACCG | -4.12 ± 0.26 | -1.76 ± 0.34 |
| GUUAAGCAAUAUUACGGAUG | -3.1 ± 0.28 | -0.786 ± 0.16 |
| AAACAGCAAUAUUACGGCCG | -1.69 ± 0.13 | -0.732 ± 0.16 |
| GCAGAGCAAUAUUACGUGGG | -3.55 ± 0.12 | -3.03 ± 0.15 |
| UUCAAGCAAUAUUACGUACU | -1.3 ± 0.13 | -0.455 ± 0.15 |
| CUUAAGCAAUAUUACGCUGA | -3.94 ± 0.39 | -1.17 ± 0.25 |
| CCGAAGCAAUAUUACGUGCA | -3.4 ± 0.3 | – |
| UGAAAGCAAUAUUACGAUGC | – | -2.83 ± 0.41 |
| UCGCAGCAAUAUUACGCCCA | -0.827 ± 0.19 | 0.0722 ± 0.18 |
| AAGAAGCAAUAUUACGAUUA | -0.809 ± 0.11 | 0.095 ± 0.11 |
| GUAAAGCAAUAUUACGGGUC | -1.78 ± 0.1 | -2.99 ± 0.12 |

| Sequence | self-splicing fitness (ln) (30 °C) | self-splicing fitness (ln) (37 °C) |
| --- | --- | --- |
| UAUGAGCAAUAUUACGACGC | – | -1.38 ± 0.32 |
| UUGAAGCAAUAUUACGGCAG | 0.393 ± 0.078 | -0.0313 ± 0.092 |
| AACCAGCAAUAUUACGGUCU | -0.594 ± 0.048 | -0.249 ± 0.066 |
| AGGUAGCAAUAUUACGGAUU | -1.553 ± 0.014 | -0.618 ± 0.033 |
| AAAUAGCAAUAUUACGAUUA | 0.0855 ± 0.11 | 0.0228 ± 0.096 |
| AACUAGCAAUAUUACGAAGU | -3.67 ± 0.3 | -2 ± 0.13 |
| ACGGAGCAAUAUUACGUCGA | -2.03 ± 0.38 | -2.07 ± 0.28 |
| CUGCAGCAAUAUUACGUGAC | -0.842 ± 0.063 | 0.23 ± 0.084 |
| UGAGAGCAAUAUUACGUCUA | -1.4 ± 0.11 | -0.679 ± 0.12 |
| CGACAGCAAUAUUACGAGUU | -2.98 ± 0.1 | -3.25 ± 0.15 |
| UCCAAGCAAUAUUACGGAAU | -3.72 ± 0.3 | -2.97 ± 0.33 |
| UCUAAGCAAUAUUACGUGGG | -3.09 ± 0.19 | -1.92 ± 0.2 |
| UAUUAGCAAUAUUACGGUAG | -2.42 ± 0.21 | -0.417 ± 0.17 |
| GUGAAGCAAUAUUACGCUUA | -1.49 ± 0.087 | -0.459 ± 0.13 |
| GCGAAGCAAUAUUACGCCUC | -2.7 ± 0.42 | – |
| AGGUAGCAAUAUUACGAAGG | -3.908 ± 0.034 | -2.86 ± 0.046 |
| GUCCAGCAAUAUUACGGUGU | -0.42 ± 0.066 | 0.833 ± 0.081 |
| ACCGAGCAAUAUUACGCAAC | -2.01 ± 0.2 | -0.42 ± 0.2 |
| CGGCAGCAAUAUUACGUGCA | -1.03 ± 0.27 | -0.293 ± 0.23 |
| GCCAAGCAAUAUUACGAAAA | -2.45 ± 0.27 | -1.54 ± 0.2 |
| AGGCAGCAAUAUUACGAUCU | 0.0214 ± 0.086 | 0.2 ± 0.12 |
| UACAAGCAAUAUUACGGCCU | -1.09 ± 0.094 | -0.547 ± 0.13 |
| UACUAGCAAUAUUACGUUGC | -2.38 ± 0.26 | -1.85 ± 0.28 |
| UACUAGCAAUAUUACGCCUU | -1.93 ± 0.15 | -0.434 ± 0.13 |
| UAACAGCAAUAUUACGCAUG | -1.43 ± 0.086 | -0.695 ± 0.099 |

| Sequence | self-splicing fitness (ln) (30 °C) | self-splicing fitness (ln) (37 °C) |
| --- | --- | --- |
| CUCGAGCAAUAUUACGACUC | -4.16 ± 0.22 | -2.61 ± 0.24 |
| GGUUAGCAAUAUUACGGAUA | -1.23 ± 0.14 | 0.704 ± 0.17 |
| UCUCAGCAAUAUUACGGGGU | -4.46 ± 0.37 | -2.8 ± 0.25 |
| UAUUAGCAAUAUUACGCGCC | -1.23 ± 0.4 | – |
| CUACAGCAAUAUUACGGGCC | – | -3.03 ± 0.47 |
| GAGGAGCAAUAUUACGAAGC | -1.73 ± 0.32 | -2.22 ± 0.4 |
| GCUCAGCAAUAUUACGUGGU | -1.88 ± 0.13 | -1.31 ± 0.17 |
| CUUCAGCAAUAUUACGACAU | -3.599 ± 0.023 | -2.28 ± 0.036 |
| UGCAAGCAAUAUUACGUGGU | -4.13 ± 0.17 | -2.84 ± 0.16 |
| GGAUAGCAAUAUUACGGUGU | -1.3 ± 0.059 | -1.05 ± 0.083 |
| ACCUAGCAAUAUUACGACAA | -0.996 ± 0.14 | -0.881 ± 0.16 |
| AGGUAGCAAUAUUACGACAU | 0 ± 0.009 | – |
| GUGAAGCAAUAUUACGACUU | -0.643 ± 0.056 | -0.276 ± 0.084 |
| CUCGAGCAAUAUUACGGGGG | -4.18 ± 0.42 | – |
| AAAAAGCAAUAUUACGAAAU | -1.91 ± 0.091 | -1.01 ± 0.12 |
| GCCCAGCAAUAUUACGCGGC | -4.94 ± 0.39 | -2.51 ± 0.24 |
| UUGCAGCAAUAUUACGACUG | -2.52 ± 0.19 | -1.72 ± 0.2 |
| AGAUAGCAAUAUUACGCACU | -1.22 ± 0.1 | -0.664 ± 0.14 |
| GGGUAGCAAUAUUACGUAUU | -0.286 ± 0.07 | -1.06 ± 0.11 |
| CGCUAGCAAUAUUACGGGGC | -2.87 ± 0.22 | -2.29 ± 0.2 |
| AUGCAGCAAUAUUACGUUAA | -2.58 ± 0.1 | -1.71 ± 0.094 |
| ACAGAGCAAUAUUACGUCUC | -3.77 ± 0.19 | -2.4 ± 0.17 |
| AGUCAGCAAUAUUACGCCUA | -0.754 ± 0.12 | 0.18 ± 0.15 |
